Measured values published in patent publication US20100028347A1 (Eli Lilly, published 2010).

What was measured:
[1] = biological target: T1, recombinant human VEGFR-1 Fc (human, UniProt P17948-2 27-687, limits assumed); assay: ELISA: plate coated with HuVEGFR-1-Fc 100 ng/well, goat anti-human kappa-HRP, O.D. 450
T1 construct: Bought from R&D Systems; also called rhuVEGFR-1 Fc; HuVEGFR-I-Fc; not shown: Fc part
Procedure: TMB (3,3′,5,5′-tetra-methylbenzidine) substrate (Kierkegaard and Perry Lab, Inc., Gaithersburg, Md.) was used for color development following the manufacturer's instruction. The absorbance at 450 nanometers (nm) was read for quantification of binding activity of antibodies. For identification of the hybridomas producing anti-VEGFR-I antibodies, hybridoma supernatants were preincubated with VEGFR-I AP for 1 hour. […] PNPP (p-nitrophenyl phosphate) substrate for AP was used for color development following the manufacturer's instruction. The absorbance at 405 nm was read for quantification of VEGFR-I binding to VEGF or P1GF. Optical density (OD) values were read on a microtiter plate reader (Molecular Devices Corp., Sunnyvale, Calif.). ED50 and IC50 of the antibodies were analyzed using GraphPad Prism 3 software (GraphPad Software, Inc., San Diego, Calif.).
HuVEGFR-I-Fc, mouse VEGFR-I-AP (hnClone Systems) or huVEGFR-2-AP (ImClone Systems) (100 ng/well) was coated on 96 strip-well plates and blocked with 5% milk/PBS. […]

[2] = biological target: T2, mouse VEGFR-1 Fc (mouse, UniProt P35969 23-759, limits assumed); assay: ELISA: antibody dilutions on plate coated with 1 µg/ml mouse VEGFR-1 Fc, HRP secondary, O.D. 450
T2 construct: not shown: Fc part; not described
T2 sequence (looked up): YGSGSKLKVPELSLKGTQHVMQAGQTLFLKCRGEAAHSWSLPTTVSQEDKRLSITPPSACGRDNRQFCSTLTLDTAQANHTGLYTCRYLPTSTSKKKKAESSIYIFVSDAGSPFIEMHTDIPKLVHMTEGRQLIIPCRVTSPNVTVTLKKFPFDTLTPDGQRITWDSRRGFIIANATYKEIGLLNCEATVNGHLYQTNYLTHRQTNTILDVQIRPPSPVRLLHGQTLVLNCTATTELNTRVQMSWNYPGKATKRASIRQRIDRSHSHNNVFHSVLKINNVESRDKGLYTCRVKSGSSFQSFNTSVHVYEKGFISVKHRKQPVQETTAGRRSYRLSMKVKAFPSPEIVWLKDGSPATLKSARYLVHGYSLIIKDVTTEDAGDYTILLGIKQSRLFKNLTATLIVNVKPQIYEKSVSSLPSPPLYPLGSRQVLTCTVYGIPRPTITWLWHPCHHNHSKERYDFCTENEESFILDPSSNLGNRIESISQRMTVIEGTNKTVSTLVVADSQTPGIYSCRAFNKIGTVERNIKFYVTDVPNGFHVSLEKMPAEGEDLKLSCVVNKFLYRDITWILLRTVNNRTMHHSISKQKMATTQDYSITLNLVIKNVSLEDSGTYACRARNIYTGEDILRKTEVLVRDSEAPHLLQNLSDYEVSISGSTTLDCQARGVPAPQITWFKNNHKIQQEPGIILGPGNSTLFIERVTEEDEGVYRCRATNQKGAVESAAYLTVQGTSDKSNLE
Procedure: (§1) To determine the specificity of an anti-VEGFR-1 monoclonal antibody to human VEGFR-I, purified antibodies 18F1 were tested in an ELISA-based assay. One μg/ml of recombinant human VEGFR-I Fc, mouse VEGFR-I Fc, mouse VEGFR-2 Fc, or human VEGFR-2 alkaline phosphatase was coated with PBS in a 96-well microtiter plates at 4° C. over night. After wash, the receptor coated plates were blocked with PBS containing 5% Dry Milk and 0.05% Tween 20. Serial dilutions of primary antibody 18F1 to human VEGFR-I, MF1 to mouse VEGFR-I, IC1 1 to human VEGFR-2, or DClOl to mouse VEGFR-2 were incubated in the receptor-coated plates for 30 minutes. After wash secondary anti-primary HRP conjugate antibodies was incubated in the plates for 30 minutes. Plates were washed and incubated with the substrate TMB (3,3′,5,5′-tetra-methylbenzidine) for color development. The absorbance at 450 nm was read as OD values for quantification of binding activity of antibodies. Data were analyzed using a GraphPad Prism Software.

[3] = biological target: T3, human VEGFR-2 alkaline phosphatase (human, UniProt P35968 20-764); assay: ELISA: antibody dilutions on plate coated with 1 µg/ml human VEGFR-2 alkaline phosphatase, HRP secondary, O.D. 450
T3 construct: also called huVEGFR-2-AP; not shown: alkaline phosphatase fusion partner; not described
Procedure: as §1

T1 sequence (P17948 other isoform, or with tags, fused parts or gaps limits assumed): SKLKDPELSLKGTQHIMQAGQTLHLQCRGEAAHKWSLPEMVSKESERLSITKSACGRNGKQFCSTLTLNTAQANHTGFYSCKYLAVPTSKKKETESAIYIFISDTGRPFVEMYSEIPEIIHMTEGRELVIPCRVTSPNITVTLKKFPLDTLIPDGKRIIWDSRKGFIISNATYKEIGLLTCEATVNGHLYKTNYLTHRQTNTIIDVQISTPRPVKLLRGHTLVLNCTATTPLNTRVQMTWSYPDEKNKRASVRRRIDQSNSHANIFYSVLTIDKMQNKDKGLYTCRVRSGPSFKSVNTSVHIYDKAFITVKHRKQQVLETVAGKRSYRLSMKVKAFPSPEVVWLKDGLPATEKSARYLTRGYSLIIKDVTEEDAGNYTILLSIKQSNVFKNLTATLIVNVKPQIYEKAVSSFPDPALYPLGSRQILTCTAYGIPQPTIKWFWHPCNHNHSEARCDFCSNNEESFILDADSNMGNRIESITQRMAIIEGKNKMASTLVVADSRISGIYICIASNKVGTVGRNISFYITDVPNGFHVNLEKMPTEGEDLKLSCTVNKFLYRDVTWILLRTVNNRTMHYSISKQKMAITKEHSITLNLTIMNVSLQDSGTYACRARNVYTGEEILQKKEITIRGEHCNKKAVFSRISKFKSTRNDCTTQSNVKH
T3 sequence (P35968 20-764): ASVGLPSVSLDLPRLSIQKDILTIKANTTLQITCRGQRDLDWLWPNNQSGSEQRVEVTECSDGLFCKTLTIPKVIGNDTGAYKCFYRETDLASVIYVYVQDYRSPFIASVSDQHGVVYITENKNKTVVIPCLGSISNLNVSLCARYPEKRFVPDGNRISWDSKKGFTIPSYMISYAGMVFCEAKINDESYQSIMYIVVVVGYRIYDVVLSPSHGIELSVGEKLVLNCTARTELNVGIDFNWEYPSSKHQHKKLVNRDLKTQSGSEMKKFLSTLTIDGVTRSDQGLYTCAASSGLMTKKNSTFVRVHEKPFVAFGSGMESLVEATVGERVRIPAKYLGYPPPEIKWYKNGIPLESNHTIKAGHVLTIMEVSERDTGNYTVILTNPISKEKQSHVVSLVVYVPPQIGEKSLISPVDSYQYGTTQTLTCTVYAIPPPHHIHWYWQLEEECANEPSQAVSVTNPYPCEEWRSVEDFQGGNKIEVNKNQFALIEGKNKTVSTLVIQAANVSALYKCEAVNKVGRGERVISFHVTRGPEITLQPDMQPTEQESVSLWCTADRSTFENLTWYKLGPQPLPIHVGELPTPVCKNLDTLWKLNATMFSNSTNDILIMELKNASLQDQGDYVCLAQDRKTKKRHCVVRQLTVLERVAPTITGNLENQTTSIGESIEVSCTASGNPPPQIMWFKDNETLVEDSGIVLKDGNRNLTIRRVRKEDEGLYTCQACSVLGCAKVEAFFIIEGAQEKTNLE

B1: anti-human VEGFR-1 antibody 18F1 (antibody, V domains shown)
VH: QAQVVESGGGVVQSGRSLRLSCAASGFAFSSYGMHWVRQAPGKGLEWVAVIWYDGSNKYYADSVRGRFTISRDNSENTLYLQMNSLRAEDTAVYYCARDHYGSGVHHYFYYGLDVWGQGTTVTVSS
VL: not shown
notes: Fully human antibody (gamma heavy chain, kappa light chain) from hybridomas of KM transgenic mice, purified; The light chain entry runs a few residues into the kappa constant region; also called MC-18F1; IMC-18F1
EC50 (read off the curve) [1]: ~3 ng/mL | binding result [2]: no binding (tested: 1 µg/ml) | binding result [3]: no binding (tested: 1 µg/ml)
